Measured values taken from US20100272736A1, “COMBINATION ANTIBIOTIC AND ANTIBODY THERAPY FOR THE TREATMENT OF PSEUDOMONAS AERUGINOSA INFECTION” (priority 2009, published 2010).

What was measured:
[1] = biological target: PcrV antigen of Pseudomonas aeruginosa (recombinant PcrV) (Pseudomonas aeruginosa); test: biolayer interferometry, ForteBio Octet
[2] = biological target: PcrV on Pseudomonas aeruginosa strain PA103 (type III secretion system) (Pseudomonas aeruginosa strain PA103); test: cell-based or functional assay

Mab166 Fab showed a Kd [1] of 0.0014 µM and an IC50 (nM), TTSS-dependent cytotoxicity assay (PA103 killing of P3-X63-Ag8 myeloma cells, propidium iodide flow cytometry) [2] of 53 nM.
